In the domain aggregation screens of Martell et al. (2025):

Assay: soluble fraction after stress (log2 fold change); higher = more stays soluble; pooled small domains, quantitative proteomics
Conditions: stress: 75 degC
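Also: 20 min heating vs room temperature control held 20 min.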

| Sequence | soluble fraction (log2) |
| --- | --- |
| HMTPADEAGNDLDIGQTVKILRRVSEGQYEVSYRGTTWQARALNAQAAVEPSFAVIGGKEGNILLVHL | -0.202 |
| HMTPDVAEFRERLRQILPGEQIEVRTANDGIVLSGTVSSIARLDAALQLAERYAPSRVSNLMSVG | 0.00274 |
| HMTPEPVREALTFQEGRVFALAAKNMTNAEIAQSLSLKLKTVENYMSIIYQKLALKNRYELLVYARKSGV | -0.576 |
| HMTPESSLHSGLGKILHDALTAKIQLTNFEAKFLSDMQSKYDLNGSFSWLSSKQQTTLEKILAKYGR | -1.98 |
| HMTPFLVRVDISDLNIRTGAGTNYSRTGQYTGKGIFTILEVKSGQGSDAGWGRLKSGAGWISLDYTTR | -2.84 |
| HMTPIELIEKTIELIENERKVQKLQQKELALKADIPFPTYKDFIYKKRASLENILKLFIALRLF | -0.384 |
| HMTPKVAVPSFVGWKFEDVERQLGTMGLIRGKVDNHPSEEYSEGRVIWQSVLGEVEKGKVIDFWVSTGPE | 0.0612 |
| HMTPNATWQDDAQSLLRDLIQHQPVLIQISAAKRLRDQAEQISRITGGDTVTRDHVEAAGHALGMGVT | -0.0233 |
| HMTPPLSKIRNMTPDQQRSSVIEARKKGYNLLQLEGLAKAQGATPADLLVLRNAWAQSEFDQKR | 0.067 |
| HMTPQVALNDTETAIYEKMKQEKQMLLGELRAQFDISNKLWDTSLKTLTKNQLLAVSKEDDLLFVKL | -0.195 |
| HMTPQVTVPDVTGQSFASAKQVLESLGLTVKQQGSTGENDKVIGQNPTSGNADKGATITLTTQDS | 0.536 |
| HMTPSTVQVHVAGAVKNPGVYVLLENARNIDAITAAGGATSEADLERINLSEFIRDGQRVYVPYKGDPI | 0.459 |
| HMTPTITNALEEAEKAVSEVQEGKKEIELTPQGAYIRHLQHAIADRYGISSTSTGRDPKRKVIIY | -0.578 |
| HMTPTNILIVEDEKEIRRFVRTALESEGLRVFESETLQRGLIEAGTRKPDLIILDLGLPDGDGLSYIRDLR | -0.0383 |
| HMTPTRQATVSVAALNVREQPSLQGRRLGKLTQGTTLTVVGPPGEWLKIEYKGETGFVYASYTSLG | -2.01 |
| HMTPTVEAAKEEVLRVLASAAPRGLTRTELEAEVSFRRTKLRDTLVELERIGRIDSVGRRGNATTYRLIG | -1.44 |
| HMTPVEVNARGVHVDFSKGGILLEDVVRHLILEALRASEWKRGPAAQLLGISKETLRYRMEKYRLYPP | -2.43 |
| HMTPYEVLVYESLKQKILSGGYAAGEKIPEQSVSEELGVSRSPLRSAIRRLASEGLIEYYPYRGAFVKA | -1.06 |
| HMTQEAMRSLRKSLQNLSSRQQVIFMLRHYEGLALKEIAEHLGLETGTVKAHLHRAVTQLRKDLVE | -1.85 |
| HMTQHDIVPLMLKMVDVLTQFVELDIPFLQQERQTRLAALNAMMGRADVSLAEKYRRIMEAYQVETEYG | -0.0856 |
| HMTQLEVDLFERLITISGVGPRLALAVLSGLEPPDLLRAIQDSDIVRLQGIPGVGKKTAERISLELKDKLS | -1.35 |
| HMTQQYVEWKVYNVTTIKNKYGFRVKLIFQDGSDATQQKGGFTSKKAAEQARTEVIGQLYSNTYVVY | -4.59 |
| HMTQSGLTQWEFNMLRQALIEMLGEKPGSVFELARLLPLEQEKNVQALRFLLDHDDQFHLKDEYISFVKRT | -2.34 |
| HMTQTAVFSKGEQEYYFPLSKVLFFETDGNTINVHTADDIYETRYRLYELEEMLPGSFMRISKSAVVNTNR | 0.00772 |
| HMTRAEVQALLEKQAKDFEVEVVHRGWKKTVQTPEFAGWYSQQPAEIKALAESDDPAVAIRMLDLFSGTK | -0.0943 |
| HMTRETTQAWWEARQTLPSGEQRSAASLSQEASHVRRFYRWAMQQGLTDRNPADWLPDVRQK | -0.603 |

| Sequence | soluble fraction (log2) |
| --- | --- |
| HMTRIHEEVVNQVHDLVKEGRFKAGDQLPSERELAEIFKVSRTSVREALRALETQGLIISRTGMGNFIAD | -0.249 |
| HMTRILTEDDIVNFLIRQPDTAYIIAKSFNENERKVKELLDLLIKKNKVREEIVNGVVSYAVN | -0.229 |
| HMTRKQTIYEFLRRMKSQHGLDAVYSTEEIANAVGVSRANVSSDLNRLFEEQLVEKLPGWPVKYRA | -0.344 |
| HMTRNEFMTALRKRLSHLPAEEQDAALKYYEEYFDEAESEEEAARQLGSPDAIADRILADYGAG | 0.327 |
| HMTRPLVILEDVKFPSYNEIVSLTLPDGTRRGGQVLEVSGNKAIVQVFEGTSGIDVKDTHIELTKSS | 0.237 |
| HMTRQEFIRKLQEALNGKLDAATIQDHLKFYDDYIIEEMRKGKSEQEVLELLGDPWAIAKTIVDAS | 0.669 |
| HMTRQKEAILALLTDSRGEALSASELLARLTRSGSSIGRTTVYRLLSQLVDDGVVRAWRDASRGITLYELS | -1.1 |
| HMTRQPSAKEHAVLTAVKEGLRRDGRAPTVRALADMTGAASTSTVQRRISALIDLGLLRRTDGTLEVVE | 0.0806 |
| HMTRRVIRAPAAGIMRSNVKLGDLVKEGDVIAWIGEHEIKAPLTGMVRGLLNDGLAVVGGFKIGDI | 0.286 |
| HMTSEPFYNPRRPQPYWTSETDRHTTYADAVRALAREFSETPEWVESNMGETNDLQEIRRNLSRVKSG | 0.125 |
| HMTSESWAEKSRSLAAAGLIVMGRDAQLKIEGLTNLDPLIEAATASSTRLLTGQTIDELLTIVP | -0.551 |
| HMTSEVLTNATIVKMVKAKLSDDIIIDEINNARVNFDVSPEGIKSLTAQNVTEPVIETMKKAVAAQESI | 0.467 |
| HMTSFDVMLKSAGANKLAVVKLVKELTGLGLKEAKDIVDAAPSKVKEGVSKEEAEELQKQLTGAGAEVEL | -0.113 |
| HMTSHYTVLGVKETDTIEMIRTHYRKLILQFHPDKNQHLTEEERKKLEVKVLQIREAYEKIKKEK | -0.433 |
| HMTSIISLAKARSIALQKVPGATSKNIHLSLDDEDDKQVYEGEIKYKQMEYVFEIDAKTGTFLKWTSERD | -1.92 |
| HMTSKTLSAVEGEGLRLDKFLSNQLPELSRTKIQKMINDGLVFVNNTEAKASLILDGSEFIAYTVPD | -0.243 |
| HMTSLAEQAYRHIRDKLSNGAFVPGEQLVNRVLATEIGVSVIPVREAINRLATEGLVKHVPGSGAFVRQ | -0.0622 |
| HMTSLYDILGIAKTADSQTIKTAFKKKALLYHPDKNNGNLKKEEIFKKISTAYQILSDPKSRANYDLSIA | -0.272 |
| HMTSMNNTEELIDMANKIIDNNPNMVLKYKEGRNVLDFFIGQVMKETKGRANPSATSKIFKDLLEK | -0.0827 |
| HMTSNKTVPYSELKGLISTGKIEYVGIGNTQIRAVSKSGAGIVTYTARRVIPDDTLIPELEKNGIAYGGI | -0.838 |
| HMTSNSLNLKDEISAFLTKNAGISYSAERIAHALNMDNADQFTPIIQTLAQLEREKKVRVTDKGEFEAVIK | 0.02 |
| HMTSSKISFIDPVNGGKVSVSLENSTLEKLQNRFGVNSVVRNEAGDVELKDKAQEFVAGWFADIAYTRG | -0.0154 |
| HMTTAGTAIVQTGNSGKLNLREQAYANAGILGRYSNGTAVTVLQKGAAWSYVEVKGQKGYMMSKFLKFTS | -1.53 |
| HMTTEIVRMKKDVKIGQEITAKDIEVVEVGAYNLPDEVIRSSEEVVGKYVSSELLKGEYVLPSKISDTP | 0.22 |
| HMTTEPYILTRMPDGSIKAEPNLNYKGPEQKPGSNIQVKGADGRIYLVPIDGQGKPGKPQLVD | 0.0898 |
| HMTTGLETYPGKIAVVSDDFIDGEGRVQLDGALWRAKTKDHQQLKQGDHVTIVNVKGLTLTVMPDD | 0.716 |

| Sequence | soluble fraction (log2) |
| --- | --- |
| HMTTGREGLIGAVGTVRQAIAPEGYVFVEGELWRAKSPAGPLEPGTTVRVIAIDGLTLTVMPAE | -0.965 |
| HMTTGTVKWFNDAKGFGFITPDDRSVDVFVHYSNIVGQSGRRTLMEGERVEYEAIEGPKGPQATDVARA | -0.223 |
| HMTTIFDNINGELRRRHLTQQDLAKTIEIDRRTWSKWQDKNDMPASVLLQIAKWLNVTLDYLTRD | -2.57 |
| HMTTIKLTQEDVEKIKSLPKRTFLIGNLQQTGLYDEKTRRFYYLDANGEWNGRLAIINTPPPPPPPP | 0.0273 |
| HMTTKYMVLVNWVKEKVRTNELKTGEKLYSEHEFSRMFHMSRQTVRHGISILERENIVERRQGSGTFIKDA | -2.95 |
| HMTTKYVAVHESKDGYWTIASKPSSKEDAEAMLGGTPKNEVGKVVTLEEAKAHKKTLGEEYLYE | 0.218 |
| HMTTMTTGQRIAAKRKEQGLSQENLGEQLGVSRQAIYKWESDASLPDIDKLIALSRLFGVSTDYLLLE | -0.584 |
| HMTTQIPEEVQKRVNQFYEALDEEDYGEAKQILEELEKATAPDHPTLIQMRTRYEFDTMELR | 0.329 |
| HMTTTPAERQRTILRSLNRVDPVSVDALARLTGVSVVTIRRDLSDLASRDLIRRVHGGALLPTR | -1.62 |
| HMTTYSVDLGDIRAVADSDGKLVELTLHAAVTTHYSHSELADRLNLAFTALREEAQADYETRY | 0.223 |
| HMTTYTGVVTGSGVNVRSGAGTSYPVVGSKTMGDVVTITETVSADGMIWGKIDIGWISMNYVRM | -2.75 |
| HMTVAQEIEARRATIRSSDPAEMARFIRWLIMEGHTEPAADELKKYAENFPEASATTKQLQALLAAR | -0.311 |
| HMTVDIADALRVLGLSDAPDWSDVRAAHRRAIVRTHPDAGGSAGDAARVNQAFDLLRKISGNGERPIPG | 0.012 |
| HMTVDTSELEEMIDDLIKEHPNEWERYSSGEKKVQGFFVGQVMKATSGQADGKAINQILSKRVKS | 0.803 |
| HMTVDYDKFTKDTVVQHNKFGKGVIIMTSGDGEDKIASIAFQGLGVKRFSLAIAASNLKILGKVNED | -2.48 |
| HMTVEVFQSLVQTFREMSPRKAASILEELKRDLAVEILLHMPEDGVAAILARMDPARAARLTEQLALEKD | -1.86 |
| HMTVGEAHLEEVYLKVLKQVEEQGTALIRTTDVETGRPAAGIRRRYMRGTLPDEWVAKFEALPGWTWAPG | -3.04 |
| HMTVGEKIQKYRKDLDLSQEELGQKLLVSRQTISLWEKDQTVPTIDNLIRLREIFGVSVDEILGF | -0.818 |
| HMTVIARQIPPLVPRMLDGLEAFIKLDVPFEEKERLARVQMLRSSLDRDNLDTAEIFRAVLEAYNIELQY | 0.352 |
| HMTVKKEIAKVKPTPLGWLRVRETPSLNGAEITKVNTGESYDVLDKETGWIKIKVSETVEGWVSDAYIELS | -0.319 |
| HMTVLPTENDAKALVGLNEDEAVKIIEGNGWTYRIGSRDGEQFMLTEDYSTSRLTLGIEKSIVVTATI | -0.543 |
| HMTVLVPNLTGKTLLEAEILLDQAGLKKGDVYSESNKNVPKDHIIRQKPAPNTKIQKGATIDIYRSLGPE | -0.0471 |
| HMTVNLPPKQKAAILLMSLPPEVSAQLFKELGPDEVHAITLEISKLPPISPDVRAQVIDEFLHSS | -0.641 |
| HMTVSIGSVIARERRLRGDTQQELAERLGVSKAAVSKWEVGQSIPDVTLLPRIAAYFSLTLDEL | -2.45 |
| HMTVVLPGESLTVNIIQEGKELGQGVGYLDDGTMVVIEDGRRYIDQTIEVTVTRVLQTVAGRMIFAQLT | -4.46 |
